From patent publication US20170212130A1

Biological target: S. cerevisiae Nup84-GFP (S. cerevisiae) (UniProt P52891)
Test: signal to noise ratio of Coomassie bands, Nup84-GFP affinity isolation on LaG-Dynabeads

Nup84-GFP S:N: 0.1
B1: LaG-8 (VHH)
VHH: QVQLVESGGGLVQHGGSLRLSCVTSGFTFDIHDMGWFRQAPGKERDIVARISKSGDITYYADSVKGRFIISRDNTKNTVYLQMNSLKPEDTAVYYCAATLRATITSFDEYVYRGQGTQVTVS
